Test results taken from the supplement of paper PMC10065799, “High-throughput profiling of sequence recognition by tyrosine kinases and SH2 domains using bacterial peptide display” (eLife, 2023).

Key:
FGFR3 = FGFR3 (UniProt P22607); assay: phosphorylation enrichment, bacterial display (enrichment ratio); higher = better substrate or ligand; peptides without Tyr show the background
c-Abl (mouse) = assay: as above
Fer (mouse) = assay: as above
Jak2 = Jak2 (UniProt O60674); assay: as above
FGFR1 = FGFR1 (UniProt P11362); assay: as above
c-Src = assay: as above
EPHB1 = EPHB1 (UniProt P54762); assay: as above
Hck = Hck (UniProt P08631); assay: as above
Fyn = Fyn (UniProt P06241); assay: as above
AncSZ = assay: as above
EPHB2 = EPHB2 (UniProt P29323); assay: as above
MERTK = MERTK (UniProt Q12866); assay: as above
Fes = Fes (UniProt P07332); assay: as above
SHP2-C SH2 = assay: SH2 binding enrichment of the phosphorylated peptide, bacterial display (enrichment ratio); higher = better substrate or ligand; peptides without Tyr show the background
Grb2 SH2 = Grb2 SH2 (UniProt P62993); assay: as above
c-Src SH2 = assay: as above
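Wherever SH2 binding enrichment of the phosphorylated peptide, bacterial display is given: peptide library displayed on the E. coli surface as eCPX fusions, selected cells deep-sequenced, score is each peptide's frequency after selection divided by its frequency in the input.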
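Wherever phosphorylation enrichment, bacterial display is given: 11-residue human phosphosite peptides and single-mutation variants displayed on the E. coli surface, counted by deep sequencing, each peptide's frequency after selection divided by its frequency in the unselected input library; frequency after pTyr selection over input frequency; kinase dosed for 20-30% of maximal phosphorylation in three min.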

Chain of Hck (P08631 whole entry, looked up): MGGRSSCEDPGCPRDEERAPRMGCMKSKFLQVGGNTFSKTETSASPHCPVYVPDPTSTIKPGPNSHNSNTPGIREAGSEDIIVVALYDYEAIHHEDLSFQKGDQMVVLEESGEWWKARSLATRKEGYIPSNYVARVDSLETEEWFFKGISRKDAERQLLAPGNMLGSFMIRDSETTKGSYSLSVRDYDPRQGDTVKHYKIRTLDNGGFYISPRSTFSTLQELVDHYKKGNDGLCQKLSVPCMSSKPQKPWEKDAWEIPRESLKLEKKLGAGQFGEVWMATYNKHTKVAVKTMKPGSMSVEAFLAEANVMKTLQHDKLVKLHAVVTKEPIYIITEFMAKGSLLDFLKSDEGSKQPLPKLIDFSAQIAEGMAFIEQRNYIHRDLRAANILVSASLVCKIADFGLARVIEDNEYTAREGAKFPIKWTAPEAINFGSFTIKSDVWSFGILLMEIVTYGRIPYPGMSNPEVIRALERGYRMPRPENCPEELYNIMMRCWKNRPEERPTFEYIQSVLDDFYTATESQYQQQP
Chain of Fyn (P06241 whole entry, looked up): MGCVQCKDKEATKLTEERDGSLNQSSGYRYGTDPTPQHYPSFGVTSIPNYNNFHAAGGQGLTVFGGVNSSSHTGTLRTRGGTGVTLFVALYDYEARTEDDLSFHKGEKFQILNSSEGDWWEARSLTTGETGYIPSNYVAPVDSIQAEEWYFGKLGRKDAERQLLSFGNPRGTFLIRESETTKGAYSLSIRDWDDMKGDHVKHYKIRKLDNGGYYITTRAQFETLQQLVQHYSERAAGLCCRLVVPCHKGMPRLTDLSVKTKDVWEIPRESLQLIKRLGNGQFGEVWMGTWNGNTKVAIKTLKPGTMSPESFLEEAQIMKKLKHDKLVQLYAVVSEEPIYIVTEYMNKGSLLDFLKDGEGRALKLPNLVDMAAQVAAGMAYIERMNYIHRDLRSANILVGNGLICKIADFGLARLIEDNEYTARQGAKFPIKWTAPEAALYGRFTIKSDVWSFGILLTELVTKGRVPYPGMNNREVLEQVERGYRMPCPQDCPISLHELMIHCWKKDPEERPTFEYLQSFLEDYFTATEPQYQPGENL
Chain of Fes (P07332 whole entry, looked up): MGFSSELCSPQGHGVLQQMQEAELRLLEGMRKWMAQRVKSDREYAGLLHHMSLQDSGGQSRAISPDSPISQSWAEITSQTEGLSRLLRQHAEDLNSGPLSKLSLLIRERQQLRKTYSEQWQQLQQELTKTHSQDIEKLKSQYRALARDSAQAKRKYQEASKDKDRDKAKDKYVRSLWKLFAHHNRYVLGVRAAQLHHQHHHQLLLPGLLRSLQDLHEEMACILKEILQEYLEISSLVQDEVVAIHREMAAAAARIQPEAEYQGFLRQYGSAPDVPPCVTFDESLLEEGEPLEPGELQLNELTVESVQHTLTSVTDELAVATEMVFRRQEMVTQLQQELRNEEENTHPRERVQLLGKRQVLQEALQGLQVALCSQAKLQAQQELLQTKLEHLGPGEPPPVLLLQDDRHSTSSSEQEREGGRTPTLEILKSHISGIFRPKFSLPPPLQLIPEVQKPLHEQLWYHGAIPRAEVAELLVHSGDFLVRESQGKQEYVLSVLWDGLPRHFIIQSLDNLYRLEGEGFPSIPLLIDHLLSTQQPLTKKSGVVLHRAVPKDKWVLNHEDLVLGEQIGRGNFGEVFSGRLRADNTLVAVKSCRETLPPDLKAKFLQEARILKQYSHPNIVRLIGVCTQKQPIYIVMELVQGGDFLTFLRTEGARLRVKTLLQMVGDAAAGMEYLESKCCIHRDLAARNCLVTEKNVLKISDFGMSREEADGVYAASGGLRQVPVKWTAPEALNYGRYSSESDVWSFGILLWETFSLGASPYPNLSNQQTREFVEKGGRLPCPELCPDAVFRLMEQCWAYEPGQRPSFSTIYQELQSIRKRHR
Chain of MERTK (Q12866 whole entry, looked up): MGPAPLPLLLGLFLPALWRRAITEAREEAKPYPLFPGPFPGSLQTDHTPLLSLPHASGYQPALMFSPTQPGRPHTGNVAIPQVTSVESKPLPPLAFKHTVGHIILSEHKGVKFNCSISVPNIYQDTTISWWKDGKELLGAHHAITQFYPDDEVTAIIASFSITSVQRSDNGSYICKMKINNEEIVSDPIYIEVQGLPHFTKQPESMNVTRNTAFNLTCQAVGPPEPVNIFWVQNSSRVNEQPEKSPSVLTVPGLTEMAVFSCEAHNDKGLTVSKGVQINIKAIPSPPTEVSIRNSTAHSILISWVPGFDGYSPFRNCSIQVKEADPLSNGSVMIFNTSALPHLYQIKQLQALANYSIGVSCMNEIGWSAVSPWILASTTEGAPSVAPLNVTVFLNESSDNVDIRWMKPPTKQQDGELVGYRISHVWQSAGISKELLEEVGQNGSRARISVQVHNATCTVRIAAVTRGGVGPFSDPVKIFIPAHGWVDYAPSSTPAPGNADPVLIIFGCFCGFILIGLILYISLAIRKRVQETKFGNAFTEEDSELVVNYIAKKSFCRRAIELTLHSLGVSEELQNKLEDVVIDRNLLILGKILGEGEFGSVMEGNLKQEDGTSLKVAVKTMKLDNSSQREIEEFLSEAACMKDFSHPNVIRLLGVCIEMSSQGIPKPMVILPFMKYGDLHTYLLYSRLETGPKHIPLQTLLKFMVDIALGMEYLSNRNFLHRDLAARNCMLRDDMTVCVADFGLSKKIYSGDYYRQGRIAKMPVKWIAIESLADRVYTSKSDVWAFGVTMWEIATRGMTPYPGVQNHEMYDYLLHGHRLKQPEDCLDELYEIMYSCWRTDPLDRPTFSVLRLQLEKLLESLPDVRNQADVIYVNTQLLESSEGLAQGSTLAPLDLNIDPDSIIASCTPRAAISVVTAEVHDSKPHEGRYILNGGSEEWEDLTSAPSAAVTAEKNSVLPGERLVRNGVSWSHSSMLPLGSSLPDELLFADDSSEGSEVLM
Chain of FGFR1 (P11362 whole entry, looked up): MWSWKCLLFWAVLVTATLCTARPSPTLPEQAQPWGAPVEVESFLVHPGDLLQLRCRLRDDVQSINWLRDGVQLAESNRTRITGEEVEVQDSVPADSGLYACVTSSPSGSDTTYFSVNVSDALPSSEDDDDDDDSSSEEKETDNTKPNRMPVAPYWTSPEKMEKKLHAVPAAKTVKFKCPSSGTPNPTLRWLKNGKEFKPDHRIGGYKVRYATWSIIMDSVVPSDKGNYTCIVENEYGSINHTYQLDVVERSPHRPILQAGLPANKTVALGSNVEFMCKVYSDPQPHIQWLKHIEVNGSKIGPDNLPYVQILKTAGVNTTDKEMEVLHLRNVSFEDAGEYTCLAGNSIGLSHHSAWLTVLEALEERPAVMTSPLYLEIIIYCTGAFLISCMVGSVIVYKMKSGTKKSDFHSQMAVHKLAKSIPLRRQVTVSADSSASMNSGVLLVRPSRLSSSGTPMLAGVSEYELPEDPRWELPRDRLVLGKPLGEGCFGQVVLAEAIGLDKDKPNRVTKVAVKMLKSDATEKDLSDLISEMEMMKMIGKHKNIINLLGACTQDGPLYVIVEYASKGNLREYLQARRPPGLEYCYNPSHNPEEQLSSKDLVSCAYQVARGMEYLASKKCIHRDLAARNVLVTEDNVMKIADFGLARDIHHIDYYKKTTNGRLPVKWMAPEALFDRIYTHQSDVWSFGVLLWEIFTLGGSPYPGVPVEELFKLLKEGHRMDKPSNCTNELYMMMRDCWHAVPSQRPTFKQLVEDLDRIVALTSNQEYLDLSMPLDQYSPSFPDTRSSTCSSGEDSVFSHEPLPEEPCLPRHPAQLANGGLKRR
Chain of EPHB2 (P29323 whole entry, looked up): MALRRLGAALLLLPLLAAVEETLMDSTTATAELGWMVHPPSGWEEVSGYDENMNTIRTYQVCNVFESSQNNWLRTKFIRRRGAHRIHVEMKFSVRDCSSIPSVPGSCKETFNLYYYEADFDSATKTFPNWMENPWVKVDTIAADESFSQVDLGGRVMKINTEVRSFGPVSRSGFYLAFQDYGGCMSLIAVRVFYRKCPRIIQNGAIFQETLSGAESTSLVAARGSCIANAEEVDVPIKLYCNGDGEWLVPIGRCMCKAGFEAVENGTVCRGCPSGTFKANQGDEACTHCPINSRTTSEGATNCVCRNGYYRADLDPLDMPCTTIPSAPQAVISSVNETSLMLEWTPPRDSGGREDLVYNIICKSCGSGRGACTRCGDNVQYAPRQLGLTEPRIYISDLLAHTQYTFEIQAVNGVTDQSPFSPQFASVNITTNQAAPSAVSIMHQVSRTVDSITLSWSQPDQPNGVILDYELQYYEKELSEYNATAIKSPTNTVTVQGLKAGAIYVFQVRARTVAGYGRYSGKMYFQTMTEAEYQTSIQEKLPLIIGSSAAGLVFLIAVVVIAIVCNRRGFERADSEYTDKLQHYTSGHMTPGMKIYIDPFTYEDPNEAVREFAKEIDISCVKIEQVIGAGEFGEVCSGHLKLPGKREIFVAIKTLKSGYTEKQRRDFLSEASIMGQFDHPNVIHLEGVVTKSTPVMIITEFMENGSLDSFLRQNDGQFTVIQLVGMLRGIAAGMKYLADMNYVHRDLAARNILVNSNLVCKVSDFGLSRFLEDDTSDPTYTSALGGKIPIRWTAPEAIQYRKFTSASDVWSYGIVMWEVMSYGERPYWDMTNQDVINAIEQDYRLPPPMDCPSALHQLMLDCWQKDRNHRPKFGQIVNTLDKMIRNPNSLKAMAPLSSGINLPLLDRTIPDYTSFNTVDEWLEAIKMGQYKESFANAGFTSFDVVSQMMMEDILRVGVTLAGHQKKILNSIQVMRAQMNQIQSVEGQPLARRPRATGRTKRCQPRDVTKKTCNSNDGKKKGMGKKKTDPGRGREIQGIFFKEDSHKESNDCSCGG
Chain of Grb2 SH2 (P62993 whole entry, looked up): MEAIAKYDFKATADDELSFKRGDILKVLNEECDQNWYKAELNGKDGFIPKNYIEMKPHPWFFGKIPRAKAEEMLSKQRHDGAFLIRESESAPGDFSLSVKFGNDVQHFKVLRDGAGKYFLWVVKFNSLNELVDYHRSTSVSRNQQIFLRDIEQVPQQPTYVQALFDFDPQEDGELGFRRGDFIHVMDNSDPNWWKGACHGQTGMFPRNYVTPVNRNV

Row | Sequence | phosphorylation enrichment (FGFR3) | phosphorylation enrichment (c-Abl (mouse)) | phosphorylation enrichment (Fer (mouse)) | phosphorylation enrichment (Jak2) | phosphorylation enrichment (FGFR1) | phosphorylation enrichment (c-Src) | phosphorylation enrichment (EPHB1) | phosphorylation enrichment (Hck) | phosphorylation enrichment (Fyn) | phosphorylation enrichment (AncSZ) | phosphorylation enrichment (EPHB2) | phosphorylation enrichment (MERTK) | phosphorylation enrichment (Fes) | SH2 binding enrichment (SHP2-C SH2) | SH2 binding enrichment (Grb2 SH2) | SH2 binding enrichment (c-Src SH2)
1 | DSLASYLDKVR [KRT10_Y160_R156S] | 0.558 | 0.629 | 0.416 | 0.682 | 0.5 | 0.46 | 0.491 | 0.469 | 0.448 | 0.701 | 0.4 | 0.46 | 0.78 | 0.772 | 0.867 | 0.579
2 | DSNPIYSQIWS [FCRL3_Y662] | 5.05 | 14.1 | 19.4 | 1.18 | 6.65 | 8.52 | 20.2 | 12 | 12.1 | 1.88 | 21.2 | 11.8 | 14.4 | 0.89 | 1.1 | 0.851
3 | DTCPPYVLSQG [GJB4_Y237] | 0.77 | 1.07 | 0.671 | 1.21 | 0.552 | 0.637 | 0.637 | 0.507 | 0.663 | 1.12 | 0.417 | 0.439 | 1.32 | 0.589 | 0.679 | 0.518
4 | DTCPPYVLSQV [GJB4_Y237_G242V] | 0.776 | 0.668 | 1.2 | 0.969 | 0.475 | 0.606 | 0.685 | 0.606 | 0.573 | 1.01 | 0.635 | 0.432 | 1.11 | 0.797 | 0.77 | 0.624
5 | DTKAFYPEEIS [HSPA1A_Y115_E110D] | 0.88 | 0.752 | 0.479 | 0.933 | 0.482 | 0.523 | 0.456 | 0.393 | 0.441 | 1.05 | 0.579 | 0.432 | 1.1 | 0.574 | 0.927 | 0.445
6 | DVCKKYAEAKD [ALB_Y343_N342K] | 0.821 | 0.775 | 0.546 | 0.897 | 0.627 | 0.53 | 0.72 | 0.659 | 0.639 | 1.24 | 0.646 | 0.402 | 1.23 | 0.431 | 0.757 | 0.562
7 | DVCKNYTEAKD [ALB_Y343_A344T] | 0.613 | 0.549 | 0.511 | 0.712 | 0.51 | 0.385 | 0.555 | 0.494 | 0.497 | 0.92 | 0.581 | 0.5 | 0.963 | 0.674 | 0.824 | 0.807
8 | DWWQEYVLNES [TGM1_Y267_R264W] | 0.97 | 0.777 | 0.678 | 1.55 | 1.61 | 4.1 | 0.831 | 0.515 | 0.563 | 2.11 | 0.817 | 0.403 | 1.51 | 0.588 | 0.993 | 0.63
9 | DYLEKYYKFGC [NNMT_Y24_S29C] | 1.14 | 1.04 | 0.563 | 1.25 | 0.855 | 0.78 | 0.824 | 0.539 | 0.588 | 1.44 | 0.802 | 0.541 | 1.28 | 0.53 | 0.611 | 0.581
10 | DYYDLYGGEKK [PTPN11_Y66_F71K] | 14.1 | 0.945 | 0.888 | 2.36 | 15.8 | 3.65 | 6.24 | 4.06 | 4.04 | 2.84 | 4.52 | 2.72 | 1.17 | 0.665 | 1.01 | 0.838
11 | EALDFYGEVKT [PTEN_Y155_R159K] | 0.823 | 0.844 | 0.78 | 1.6 | 0.53 | 1.21 | 0.719 | 1.15 | 1.2 | 1.19 | 0.722 | 0.409 | 1.56 | 0.757 | 0.813 | 0.471
12 | EERKTYVNTML [TEK_Y1102_T1106M] | 0.506 | 0.55 | 0.42 | 0.637 | 0.428 | 0.362 | 0.385 | 0.378 | 0.44 | 0.71 | 0.442 | 0.354 | 0.803 | 0.606 | 12.9 | 0.661
13 | EERNPYFSSAR [MCCC2_Y520_G517R_YF] | 0.404 | 0.624 | 0.36 | 0.779 | 0.486 | 1.08 | 0.466 | 0.659 | 0.475 | 0.769 | 0.392 | 0.407 | 0.752 | 0.789 | 0.859 | 0.446
14 | EHFSYYGMKAV [SLC15A2_Y61_R57H] | 6.68 | 0.634 | 0.607 | 9.46 | 8.11 | 3.38 | 0.887 | 3.42 | 1.71 | 1.01 | 0.818 | 2.35 | 0.765 | 0.816 | 0.923 | 0.951
15 | EITSHYRHLLR [ZBTB46_Y14] | 0.517 | 0.733 | 0.571 | 0.601 | 0.444 | 0.475 | 0.417 | 0.389 | 0.319 | 0.733 | 0.443 | 0.392 | 0.819 | 0.661 | 0.77 | 0.491
16 | EKIANYKEGTY [CLRN1_Y171] | 0.449 | 0.76 | 0.552 | 0.654 | 0.45 | 0.468 | 0.573 | 0.489 | 0.546 | 0.671 | 0.389 | 0.41 | 0.704 | 0.641 | 0.803 | 0.433
17 | EKLQKYFRKNP [EHHADH_Y682_Q685K_YF] | 0.553 | 0.763 | 0.514 | 0.991 | 0.473 | 0.613 | 0.693 | 0.646 | 0.527 | 0.613 | 0.615 | 0.567 | 0.895 | 0.802 | 0.914 | 0.549
18 | ELETLYKKAVK [CC2D2A_Y381] | 0.731 | 0.517 | 0.37 | 0.684 | 0.485 | 0.323 | 0.526 | 0.554 | 0.366 | 0.702 | 0.47 | 0.416 | 0.896 | 0.589 | 0.809 | 0.458
19 | ELTSVYGSRAR [SENP1_Y349_D350G] | 0.583 | 0.567 | 0.424 | 0.538 | 0.41 | 1.96 | 0.378 | 1.86 | 1.97 | 0.523 | 0.42 | 0.449 | 0.633 | 0.501 | 0.69 | 0.411
20 | EMTRNYIIFIE [BCO2_Y294_G289E] | 0.683 | 0.572 | 0.487 | 1.06 | 0.575 | 0.464 | 0.51 | 0.534 | 0.586 | 1.1 | 0.569 | 0.513 | 1.08 | 0.903 | 1.19 | 0.625
21 | ENAGFYFRVSA | 1.1 | 0.831 | 0.724 | 1.22 | 0.841 | 0.324 | 0.794 | 0.62 | 0.45 | 1.45 | 0.704 | 0.44 | 1.58 | 0.738 | 0.646 | 0.359
22 | ENAGYYFRISA | 0.852 | 0.764 | 0.523 | 1.36 | 0.527 | 0.356 | 0.797 | 0.534 | 0.488 | 1.51 | 0.781 | 0.369 | 1.48 | 0.776 | 0.661 | 0.6
23 | ENRLDYGSAWA [AR_Y395_P392R] | 0.503 | 0.501 | 0.352 | 0.824 | 0.353 | 0.435 | 0.359 | 0.311 | 0.498 | 0.773 | 0.453 | 0.364 | 1.25 | 0.735 | 0.955 | 0.499
24 | EPFKVYRIVPE [IRF8_Y110_YF] | 0.485 | 0.43 | 0.424 | 0.526 | 0.468 | 0.588 | 0.428 | 0.4 | 0.462 | 0.572 | 0.454 | 0.453 | 0.698 | 0.511 | 0.774 | 0.506
25 | EPVSDYINANI [PTPN11_Y304] | 0.673 | 0.603 | 0.412 | 0.799 | 0.454 | 0.38 | 0.433 | 0.541 | 0.447 | 0.997 | 0.495 | 0.325 | 0.847 | 0.911 | 0.819 | 0.466
26 | EQLRAYLEGEC [HLA-C_Y183_T187E] | 0.949 | 1.15 | 0.537 | 1.14 | 0.514 | 0.465 | 0.775 | 0.533 | 0.548 | 1.3 | 0.623 | 0.51 | 1.25 | 0.664 | 0.783 | 0.502
27 | EQLRAYLEGLC [HLA-C_Y183_T187L] | 0.843 | 1.13 | 0.607 | 1.45 | 0.512 | 0.618 | 0.653 | 0.73 | 0.482 | 1.34 | 0.673 | 0.615 | 1.58 | 0.66 | 0.704 | 0.449
28 | ERLWVYGMSSS [F8_Y1728_D1727V] | 0.729 | 0.691 | 0.539 | 1.18 | 0.529 | 0.556 | 0.669 | 0.574 | 0.565 | 1.17 | 0.612 | 0.395 | 1.61 | 0.688 | 0.872 | 0.639
29 | ERPGVYTNVVE [F11_Y608] | 0.538 | 0.513 | 0.413 | 0.519 | 0.438 | 0.442 | 0.417 | 0.463 | 0.481 | 0.66 | 0.423 | 0.383 | 0.62 | 0.979 | 4.93 | 6.19
